Measured values published in PMC10163693, “The oncogenic role of NF1 in gallbladder cancer through regulation of YAP1 stability by direct interaction with YAP1” (Journal of Translational Medicine, 2023).

What was measured:
Conditions in all cases: both partners purified
[1] = target: T1, GST-NF1^PPQY (residues 2665-2687) (UniProt P21359-2 2665-2687); assay: pull-down; GST, GST-NF1^PPQY or GST-NF1^AAAA prebound on Glutathione Sepharose beads; increasing amounts of His-Sumo-YAP1^WW1 or His-Sumo-YAP1^WW2 added; 20 mM Tris pH 8.0, 150 mM NaCl, 2 h, 4 °C; eluted with 10 mM GSH; SDS-PAGE, Coomassie blue
T1 construct: Neurofibromin 1 (NF1), residues 2665-2687, holds the PPQY motif; also called GST-tagged NF1^PPQY; source: purified; not shown: GST, N-terminal, kept
T1 chain (looked up): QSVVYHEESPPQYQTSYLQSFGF

[2] = target: T2, YAP1^WW1 (as used in ITC) (UniProt P46937 174-204); assay: ITC; 25 °C, PEAQ-ITC; 10 mM NF1^PPQY peptide injected (20 injections of 2 μl) into 1 mM YAP1^WW1 or YAP1^WW2; 10 mM Tris pH 8.0, 100 mM NaCl; one-site binding model
T2 construct: Yes-associated protein 1 (YAP1), first WW domain; the label YAP1^WW1 is defined as residues 174-204 in the pull-down methods; The ITC methods name only YAP1^WW1

[3] = target: T3, YAP1^WW2 (as used in ITC) (UniProt P46937 227-266); assay: as above
T3 construct: Yes-associated protein 1 (YAP1), second WW domain; the label YAP1^WW2 is defined as residues 227-266 in the pull-down methods; The ITC methods name only YAP1^WW2

B1: His-Sumo-YAP1^WW1 (residues 174-204) (domain or fragment, UniProt P46937 174-204, looked up)
chain: PAGWEMAKTSSGQRYFLNHIDQTTTWQDPRK
notes: Yes-associated protein 1 (YAP1), first WW domain, residues 174-204; source: purified; not shown: His, N-terminal, kept; Sumo, N-terminal, kept
- binding result [1]: binds

B2: NF1^PPQY peptide (residues 2671-2680: EESPPQYQTS) (peptide)
peptide: EESPPQYQTS
notes: also called NF1 peptides; source: synthetic peptide (Scilight-Peptide, China)
- Kd [2]: 320 µM
- Kd [3]: 346 µM

B3: His-Sumo-YAP1^WW2 (residues 227-266) (domain or fragment, UniProt P46937 227-266, looked up)
chain: SASGPLPDGWEQAMTQDGEIYYINHKNKTTSWLDPRLDPR
notes: Yes-associated protein 1 (YAP1), second WW domain, residues 227-266; source: purified; not shown: His, N-terminal, kept; Sumo, N-terminal, kept
- binding result [1]: binds
